We go through one molecule from paper PMC9172074, “A microfluidic paper analytical device using capture aptamers for the detection of PfLDH in blood matrices”.

Data set [1] addresses T1, rPfLDH (recombinant Plasmodium falciparum lactate dehydrogenase) (Plasmodium falciparum, UniProt Q76NM3 1-316). Put plainly: paper capture, Malstat enzyme activity colorimetry; Zone 1, apparent Kd (fit 23.643 ± 10.806); PBS pH 7.4 (10 mM Na2HPO4, 1.8 mM KH2PO4 [printed KH2HPO4], 2.7 mM KCl, 137 mM NaCl), room temperature, 30 min; pL1: 20 mM Tris, 50 mM NaCl, 5 mM KCl, 5 mM MgCl2, 0.01% Tween 20, pH 8.0. Conditions: protein: recombinant; chain copies: 4; label: 5' biotin.

Data set [2] has as its target T1, rPfLDH (recombinant Plasmodium …). Put plainly: paper capture, Malstat enzyme activity colorimetry; Zone 3, apparent Kd; PBS pH 7.4 (10 mM Na2HPO4, 1.8 mM KH2PO4 [printed KH2HPO4], 2.7 mM KCl, 137 mM NaCl), room temperature, 30 min; pL1: 20 mM Tris, 50 mM NaCl, 5 mM KCl, 5 mM MgCl2, 0.01% Tween 20, pH 8.0. The note with it: protein: recombinant; chain copies: 4; label: 5' biotin.

B1: rLDH7 (ssDNA)
DNA: GCCTGTTGTGAGCCTCCTAACCCAGAATAGGGACTGCTCGGGATTGCGGATGAGTCTGGGTGGGACATGGCATGCTTATTCTTGTCTCCC
As to B1, the Kd came out at 0.024 ± 0.011 µM in data set [1] and 0.0114 ± 0.005 µM in data set [2].
